Target: recombinant human FcγRIIIa (V158) (human) (UniProt P08637)
Test: SPR

Sequence of UniProt P08637 (P08637 17-208): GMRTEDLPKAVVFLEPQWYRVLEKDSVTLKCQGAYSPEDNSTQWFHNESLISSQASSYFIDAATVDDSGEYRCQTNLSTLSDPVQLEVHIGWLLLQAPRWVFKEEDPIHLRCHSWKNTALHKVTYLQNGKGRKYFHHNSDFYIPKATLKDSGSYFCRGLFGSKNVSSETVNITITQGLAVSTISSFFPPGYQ

Kd | Substance
0.00742 µM | anti-EGFR hIgG1 chimeric mAb with variant hIgG1-Fc from donor vector phIgG-SDIE (from UniProt P01875)
0.0294 µM | anti-EGFR hIgG1 chimeric mAb with variant hIgG1-Fc from donor vector phIgG-mu (from UniProt P01875)

From paper PMC5131995
